Data on one molecule can be found in patent US20210403578A1 (Stanford University, published 2021).

This assay concerns the target T1, Fz8-CRD (UniProt Q9H461 32-151, limits assumed, fluorescence-conjugated).
T1 construct: domain: CRD; also called Fzd8-CRD; frizzled (Fz8-CRD)
T1 sequence (looked up): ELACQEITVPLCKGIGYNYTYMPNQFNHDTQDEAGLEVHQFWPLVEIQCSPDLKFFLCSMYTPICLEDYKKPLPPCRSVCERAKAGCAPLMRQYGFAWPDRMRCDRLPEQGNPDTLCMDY
The assay is described as follows: yeast surface display with fluorescence-conjugated Fz8-CRD. From the text: Fz27 was expressed in a construct enabling binding to be confirmed via yeast surface display using fluorescence-conjugated Fz8-CRD.

B1: uncharacterized protein Bh1478 from Bacillus halodurans (other)
chain: MDVQRVGKAGLHRVDSKKQQTAAGVSFSEVMGKQRDEKAYERLQALMSKIDDQGKLLSETRTIEELRKYKELVKEFVGDAVELGLRLEERRGFNRRGRTKIYKIVKEVDRKLLDLTDAVLAKEKKGLDILNMVGEIKGLLINIYA
notes: also called 2QUP; wild-type scaffold
On to B1, for which the binding result was “no binding”.
